From patent publication US11795460B2, “Compositions and methods for TTR gene editing and treating ATTR amyloidosis” (Intellia Therapeutics, Inc., priority 2017, dated 2023)
Strand notation (5' to 3'): a small letter for the sugar, then the base; units joined by * are phosphorothioate-linked, units joined directly phosphodiester-linked; [ ] holds rarer units or linkages, { } end groups; capitals alone tell only the bases. m = 2'-O-methyl; r = 2'-OH (RNA)

Legend:
[1] = system: TTR; test: TTR editing in primary cyno hepatocytes electroporated with Spy Cas9 protein and dgRNAs (Tables 10, 11); type: cell-based, cynomolgus monkey; settings: Table 10; primary cyno hepatocytes electroporated with Spy Cas9 protein (RNP) and dgRNAs
Method in brief: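 Editing efficiency is the fraction of NGS reads carrying insertions, deletions or substitutions at the TTR target, measured on MiSeq amplicons from DNA harvested 24, 48 or 72 h post-delivery. Cas9–dgRNA ribonucleoprotein was nucleofected (P3 buffer, EX-147) into primary human or cyno hepatocytes.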

[2] = system: TTR; test: TTR editing in primary human hepatocytes transfected with Spy Cas9 mRNA and sgRNAs (Table 13); type: cell-based; settings: primary human hepatocytes co-transfected with Spy Cas9 mRNA (SEQ ID NO:2) and sgRNAs, 12.5 nM
Experimental: (§1) Primary liver hepatocytes. Primary human liver hepatocytes (PHH) and primary cynomolgus liver hepatocytes (PCH) (Gibco) were cultured per the manufacturer's protocol (Invitrogen, protocol 11.28.2012). In brief, the cells were thawed and resuspended in hepatocyte thawing medium with supplements (Gibco, Cat. CM7000) followed by centrifugation at 100 g for 10 minutes for human and 80 g for 4 minutes for cyno. The supernatant was discarded and the pelleted cells resuspended in hepatocyte plating medium plus supplement pack (Invitrogen, Cat. A1217601 and CM3000). Cells were counted and plated on Bio-coat collagen I coated 96-well plates (ThermoFisher, Cat. 877272) at a density of 33,000 cells/well for human or 60,000 cells/well for cyno (or 65,000 cells/well when assaying effects on TTR protein, described further below). Plated cells were allowed to settle and adhere for 6 or 24 hours in a tissue culture incubator at 37° C. and 5% CO2 atmosphere. After incubation cells were checked for monolayer formation and media was replaced with hepatocyte culture medium with serum-free supplement pack (Invitrogen, Cat. A1217601 and CM4000).
Lipofectamine RNAiMax (ThermoFisher, Cat. 13778150) based transfections were conducted as per the manufacturer's protocol. Cells were sequentially transfected with a lipoplex containing Spy Cas9 mRNA (100 ng), Lipofectamine RNAiMax (0.4 […]) and tracer RNA ([…]), Lipofectamine RNAiMax (0.4 μL/well) and OptiMem.
Transfected cells were harvested post-transfection at 24, 48, or 72 hours. The genomic DNA was extracted from each well of a 96-well plate using 50 μL/well BuccalAmp DNA Extraction solution (Epicentre, Cat. QE09050) per manufacturer's protocol. All DNA samples were subjected to PCR and subsequent NGS analyses, as described herein.
(§2) To quantitatively determine the efficiency of editing at the target location in the genome, sequencing was utilized to identify the presence of insertions and deletions introduced by gene editing.
(§3) Primers were designed around the target site within the gene of interest (e.g. TTR), and the genomic area of interest was amplified.
(§4) Additional PCR was performed per the manufacturer's protocols (Illumina) to add chemistry for sequencing. The amplicons were sequenced on an Illumina MiSeq instrument. The reads were aligned to a reference genome (e.g., the human reference genome (hg38), the cynomologus reference genome (mf5), the rat reference genome (rn6), or the mouse reference genome (mm10)) after eliminating those having low quality scores. The resulting files containing the reads were mapped to the reference genome (BAM files), where reads that overlapped the target region of interest were selected and the number of wild type reads versus the number of reads which contain an insertion, substitution, or deletion was calculated.
(§5) The editing percentage (e.g., the “editing efficiency” or “percent editing” or “indel frequency”) is defined as the total number of sequence reads with insertions/deletions (“indels”) or substitutions over the total number of sequence reads, including wild type.
Guides in modified sgRNA format targeting human and/or cyno TTR were delivered to primary human hepatocytes and primary cyno hepatocytes as described in Example 1. Percent editing was determined for crRNAs comprising each guide sequence across each cell type and the guide sequences were then rank ordered based on highest % edit. The screening data for the guide sequences in Table 2 in both cell lines are listed below (Table 12 through 15).

[3] = system: TTR; test: TTR editing in primary human hepatocytes treated with LNP formulated Spy Cas9 mRNA (SEQ ID NO: 2) and sgRNAs (Table 16); type: cell-based; settings: LNP formulated Spy Cas9 mRNA (SEQ ID NO: 2) and sgRNA, 72 hours
Experimental: as §1
In general, the lipid nanoparticle components were dissolved in 100% ethanol with the lipid component of various molar ratios. The RNA cargos were dissolved in 25 mM citrate, 100 mM NaCl, pH 5.0, resulting in a concentration of RNA cargo of approximately 0.45 mg/mL. The LNPs were formulated with a lipid amine to RNA phosphate (N:P) molar ratio of about 4.5 or about 6, with the ratio of mRNA to gRNA at 1:1 by weight.
The LNPs were formed by microfluidic mixing of the lipid and RNA solutions using a Precision Nanosystems NanoAssemblr™ Benchtop Instrument, according to the manufacturer's protocol. A 2:1 ratio of aqueous to organic solvent was maintained during mixing using differential flow rates. After mixing, the LNPs were collected, diluted in water (approximately 1:1 v/v), held for 1 hour at room temperature, and further diluted with water (approximately 1:1 v/v) before final buffer exchange. The final buffer exchange into 50 mM Tris, 45 mM NaCl, 5% (w/v) sucrose, pH 7.5 (TSS) was completed with PD-10 desalting columns (GE). If required, formulations were concentrated by centrifugation with Amicon 100 kDa centrifugal filters (Millipore). The resulting mixture was then filtered using a 0.2 μm sterile filter. The final LNP was stored at −80° C. until further use.
as §2, §3, §4, §5
Lipid nanoparticle formulations of modified sgRNAs targeting human TTR and the cyno matched sgRNA sequences were tested on primary human hepatocytes and primary cyno hepatocytes in a dose response curve. Primary human and cyno hepatocytes were plated as described in Example 1. […]

| Molecule | Avg % Deletion [1] [%] | Avg % Edit [1] [%] | Avg % Insert [1] [%] | Avg % Deletion [2] [%] | Avg % Edit [2] [%] | Avg % Insert [2] [%] | 12.5 ng mRNA, 3.9 nM sgRNA Avg % Edit [3] [%] |
| --- | --- | --- | --- | --- | --- | --- | --- |
| UCUAGAACUUUGACCAUCAG (tested as dual guide RNA, chemistry not given here) [CR003345] | 22.19 | 52.92 | 30.74 |  |  |  |  |
| UGAAUCCAAGUGUCCUCUGA (tested as dual guide RNA, chemistry not given here) [CR005303] | 0.56 | 59.28 | 58.72 |  |  |  |  |
| UGGACUGGUAUUUGUGUCUG (tested as dual guide RNA, chemistry not given here) [CR003340] | 4.80 | 12.53 | 7.72 |  |  |  |  |
| UGUAGAAGGGAUAUACAAAG (tested as dual guide RNA, chemistry not given here) [CR003365] | 0.97 | 10.31 | 9.33 |  |  |  |  |
| UUUGACCAUCAGAGGACACU (tested as dual guide RNA, chemistry not given here) [CR003344] | 1.91 | 35.72 | 33.81 |  |  |  |  |
| G000488: TTR sgRNA modified sequence, Human, SEQ ID No. 95; guide sequence of CR003346 (nucleic acid) guide: mA*mA*mA*rGrUrUrCrUrArGrArUrGrCrUrGrUrCrCrGrGrUrUrUrUrArGrAmGmCmUmAmGmAmAmAmUmAmGmCrArArGrUrUrArArArArUrArArGrGrCrUrArGrUrCrCrGrUrUrArUrCrAmAmCmUmUmGmAmAmAmAmAmGmUmGmGmCmAmCmCmGmAmGmUmCmGmGmUmGmCmU*mU*mU*mU |  |  |  | 37.48 | 49.40 | 11.98 | 44.80 |
| G000486: TTR sgRNA modified sequence, Human, SEQ ID No. 93; guide sequence of CR003339 (nucleic acid) guide: mA*mC*mA*rCrArArArUrArCrCrArGrUrCrCrArGrCrArGrUrUrUrUrArGrAmGmCmUmAmGmAmAmAmUmAmGmCrArArGrUrUrArArArArUrArArGrGrCrUrArGrUrCrCrGrUrUrArUrCrAmAmCmUmUmGmAmAmAmAmAmGmUmGmGmCmAmCmCmGmAmGmUmCmGmGmUmGmCmU*mU*mU*mU |  |  |  | 56.37 | 59.13 | 2.82 | 61.33 |
| G000571: TTR sgRNA modified sequence, Human, SEQ ID No. 112; guide sequence of CR005301 (nucleic acid) guide: mG*mU*mC*rArCrArGrArArArCrArCrUrCrArCrCrGrUrGrUrUrUrUrArGrAmGmCmUmAmGmAmAmAmUmAmGmCrArArGrUrUrArArArArUrArArGrGrCrUrArGrUrCrCrGrUrUrArUrCrAmAmCmUmUmGmAmAmAmAmAmGmUmGmGmCmAmCmCmGmAmGmUmCmGmGmUmGmCmU*mU*mU*mU |  |  |  | 6.13 | 20.47 | 14.47 |  |
| G000499: TTR sgRNA modified sequence, Human, SEQ ID No. 106; guide sequence of CR005303 (nucleic acid) guide: mU*mG*mA*rArUrCrCrArArGrUrGrUrCrCrUrCrUrGrArGrUrUrUrUrArGrAmGmCmUmAmGmAmAmAmUmAmGmCrArArGrUrUrArArArArUrArArGrGrCrUrArGrUrCrCrGrUrUrArUrCrAmAmCmUmUmGmAmAmAmAmAmGmUmGmGmCmAmCmCmGmAmGmUmCmGmGmUmGmCmU*mU*mU*mU |  |  |  | 0.77 | 39.30 | 38.58 | 16.07 |
| G000483: TTR sgRNA modified sequence, Human, SEQ ID No. 90; guide sequence of CR005298 (nucleic acid) guide: mU*mC*mC*rArCrUrCrArUrUrCrUrUrGrGrCrArGrGrArGrUrUrUrUrArGrAmGmCmUmAmGmAmAmAmUmAmGmCrArArGrUrUrArArArArUrArArGrGrCrUrArGrUrCrCrGrUrUrArUrCrAmAmCmUmUmGmAmAmAmAmAmGmUmGmGmCmAmCmCmGmAmGmUmCmGmGmUmGmCmU*mU*mU*mU |  |  |  | 23.85 | 27.82 | 4.05 | 7.37 |
| G000489: TTR sgRNA modified sequence, Human, SEQ ID No. 96; guide sequence of CR003344 (nucleic acid) guide: mU*mU*mU*rGrArCrCrArUrCrArGrArGrGrArCrArCrUrGrUrUrUrUrArGrAmGmCmUmAmGmAmAmAmUmAmGmCrArArGrUrUrArArArArUrArArGrGrCrUrArGrUrCrCrGrUrUrArUrCrAmAmCmUmUmGmAmAmAmAmAmGmUmGmGmCmAmCmCmGmAmGmUmCmGmGmUmGmCmU*mU*mU*mU |  |  |  | 10.28 | 24.25 | 14.17 | 16.85 |
| G000481: TTR sgRNA modified sequence, Human, SEQ ID No. 88; guide sequence of CR003345 (nucleic acid) guide: mU*mC*mU*rArGrArArCrUrUrUrGrArCrCrArUrCrArGrGrUrUrUrUrArGrAmGmCmUmAmGmAmAmAmUmAmGmCrArArGrUrUrArArArArUrArArGrGrCrUrArGrUrCrCrGrUrUrArUrCrAmAmCmUmUmGmAmAmAmAmAmGmUmGmGmCmAmCmCmGmAmGmUmCmGmGmUmGmCmU*mU*mU*mU |  |  |  | 19.77 | 34.30 | 14.62 | 24.37 |
| G000482: TTR sgRNA modified sequence, Human, SEQ ID No. 89; guide sequence of CR003365 (nucleic acid) guide: mU*mG*mU*rArGrArArGrGrGrArUrArUrArCrArArArGrGrUrUrUrUrArGrAmGmCmUmAmGmAmAmAmUmAmGmCrArArGrUrUrArArArArUrArArGrGrCrUrArGrUrCrCrGrUrUrArUrCrAmAmCmUmUmGmAmAmAmAmAmGmUmGmGmCmAmCmCmGmAmGmUmCmGmGmUmGmCmU*mU*mU*mU |  |  |  | 13.25 | 40.93 | 27.70 | 19.10 |
| G000494: TTR sgRNA modified sequence, Human, SEQ ID No. 101; guide sequence of CR003360 (nucleic acid) guide: mG*mU*mG*rArGrUrCrUrGrGrArGrArGrCrUrGrCrArUrGrUrUrUrUrArGrAmGmCmUmAmGmAmAmAmUmAmGmCrArArGrUrUrArArArArUrArArGrGrCrUrArGrUrCrCrGrUrUrArUrCrAmAmCmUmUmGmAmAmAmAmAmGmUmGmGmCmAmCmCmGmAmGmUmCmGmGmUmGmCmU*mU*mU*mU |  |  |  | 1.07 | 26.22 | 25.17 | 6.37 |
| G000480: TTR sgRNA modified sequence, Human, SEQ ID No. 87; guide sequence of CR003353 (nucleic acid) guide: mA*mA*mA*rGrGrCrUrGrCrUrGrArUrGrArCrArCrCrUrGrUrUrUrUrArGrAmGmCmUmAmGmAmAmAmUmAmGmCrArArGrUrUrArArArArUrArArGrGrCrUrArGrUrCrCrGrUrUrArUrCrAmAmCmUmUmGmAmAmAmAmAmGmUmGmGmCmAmCmCmGmAmGmUmCmGmGmUmGmCmU*mU*mU*mU |  |  |  | 13.47 | 73.28 | 59.85 | 59.33 |
